Test results taken from patent US20020193568.
pKd: −log10 of the molar value. Like-named read-outs stand apart in the source and are kept apart here.

Legend:
[1] = biological target: LacI Pro320Ala Pro320Ala (Escherichia coli) (UniProt P03023); details: wild-type inducer responsivity
[2] = biological target: lac repressor (LacI) wild-type (Escherichia coli) (UniProt P03023); details: no inducer; assay method not stated; cited from earlier work
[3] = biological target: LacI Gln60Gly (Escherichia coli) (UniProt P03023)

Substance	binding signal (fold higher affinity than wild-type) [1]	pKd [2]	pKd ([3]; 1 mM IPTG, described as wild-type affinity under these conditions)	pKd ([3]; no inducer, assay method not stated, refers to Falcon and Matthews 1999, cited from earlier work)
lac operator DNA (LacO)	10			
lac operator O1 (LacO)		10.92	< 7.00	11.40
